Measured values from PMC6386705.

Assays:
[1] = target: HuR RRM3 (residues 241 to 326) (human), Q15717; experiment: ITC; conditions: remark: other sources report otherwise
[2] = target: HuR RRM3 (residues 241 to 326) (human), Q15717; experiment: NMR 15N relaxation; conditions: remark: other sources report otherwise

Kd [1]: 31.7 µM
stoichiometry N [2]: 2
B1: HuR RRM3 (residues 241 to 326), Q15717 241-326 (domain or fragment)
chain: SSGWCIFIYNLGQDADEGILWQMFGPFGAVTNVKVIRDFNTNKCKGFGFVTMTNYEEAAMAIASLNGYRLGDKILQVSFKTNKSHK
